Assay: soluble on expression in E. coli; label from the status in PepcDB or PDB records

Row | Sequence | soluble on expression in E. coli
1 | MGSDKIHHHHHHMETLISGKNLKAYYVLDLWGSKKVVKAVDNVSLDILPNEIYGIAGESGCGKSTLLKALLALLDPPLRLMDGELLYNIEGRPTNVTLLKSETIRKLRWSFISYIPQGSMHVLNPVKRVRDTFIEILSSHVKKQTKEFLDLAVQHLKDLGLPERVLNMFPHQLSGGMRQRVTIALATVLKPRVIFADEPTTALDVVAQRAVMQLIRKIQNDLKNTVVLVTHDMGVHAQITTRMAIMYAGKIVEEGPTLEIFKNPLHPYTRYLIQSLPAIGDKKLRSGIPGSPPSLVAPPPGCRFHPRCPHASQRCREEEPLLKEIKPGHKVACFLMEG | not soluble
2 | SKERRAPQPVVARCKLVLVGDVQCGKTAMLQVLAKDCYPETYVPTVFENYTACLETEEQRVELSLWDTSGSPYYDNVRPLCYSDSDAVLLCFDISRPETVDSALKKWRTEILDYCPSTRVLLIGCKTDLRTDLSTLMELSHQKQAPISYEQGCAIAKQLGAEIYLEGSAFTSEKSIHSIFRTASMLCLNKPSPLPQKSPVRSLSKRLLHLPSRSELISSTFKKEKAKSCSIM | soluble
3 | MSISASEARQRLFPLIEQVNTDHQPVRITSRAGDAVLMSADDYDAWQETVYLLRSPENARRLMEAVARDKAGHSAFTKSVDELREMAGGEE | soluble
4 | MGSDKIHHHHHHMAYPFNHKEFVAMMEQYNLKSNSITIPEHTILNDLVTENRDCVYLLKSGILAGYIDFDNDKIYSIFTSNFFMGYYTIFDNASLVLTYQTLTECELIIYKKKDIEYSLSLFPENFSFQYTIMRTIAKHGYYKSLLQYRDKKDQLAFVFEMLVKILDIPVEDGVAVLPKSISTTVIKNYCTLSKAFFYSQLKELKEAGIISKVKLQWRINMEALSEKNNSIN | not soluble
5 | MPLSQEESTLIERATATINSIPISEDYSVASAALSSDGRIFTGVNVYHFTGGPCAELVVLGTAAAAAAGNLTCIVAIGNENRGILSPCGRCRQVLLDLHPGIKAIVKDSDGQPTAVGIRELLPSGYVWEG | soluble
6 | MGEPVILEAVRTPIGKRNGALRAYRPDALYAKVLDALLERTGIDPGLIGDVVTGCVTQVGEQGANVGRLGVLLSRLPKEVPAVSLNRMCGSSQQAVHFAAQAIAAGDVDFAIAGGVESMTRVPMFADIGGGFHTLNPELGKRYELVHQGESAERIAERYGFCREELDEWGYLSHKRAARATEEGRFSAQILPLEGLDAEGRPFLLTRDEGVRPDVDYEKMLALKPVFREDGVVTAGNSSQISDGAAALLLGDREKALALGLRPRARFLARVVVAGDPTLQLLEVIPAAKKALERAGLSLRDVDVIEVNEAFASVVLAFLRELGADPEKVNPNGGAIAHGHPLGATGAVLMTKLLYELERTGSEFGLQVMCIGHGQATATVIQRL | soluble
7 | MLRFGFAAVLLVLAGCSAPMGPEALGPGSYQAAPDPGPFLTPADAQRAFPAVVARVEPVAEAICRERTRGVPCDFQIAVDARPGLDPNAFQTLDDYGRPVIGLTLSLISDARNVDELAFVVGHETAHHILGHIPRQRETALTGAVLAGVLAQMGGADAQTIRSVQEFGANVGARSYSKNFELEADGLGTEIAIRAGYDPVHGAQFFTRLPDPGDTFLGSHPPNAQRIAAVRRAAESIGYVSAWLEHHHHHH | not soluble
8 | MNIHEYQGKAVLRSYGVSVPNGKVAFTVEEAVEAAKELGTDVCVVKAQIHAGGRGKAGGVKVAKNLDEVRTYAESILGTTLVTHQTGPEGKEVKRLLIEEGCDIKKEYYVGLVLDRATSQVVLMASEEGGTEIEEVAEKTPEKIFKEYIDPAVGLQGFQARRIAFNINIPKELVGQAVKFMMGLYRAFIEKDCSIAEINPLVTTGDGKVMALDAKLNFDSNALYRHKDILELRDLDEEDAKEIEASKYDLNYIPLDGNIGCMVNGAGLAMATMDIIKHYHGDPANFLDVGGGATAEKVTEAFKIILSDKNVKGIFVNIFGGIMKCDVIAEGVIEATKQVGLELPLVVRLEGTNVELGKKILNESGLNIVAAESMTDGAQKIVSLVG | not soluble
9 | MVEAIIFDMDGVLFDTEKYYYDRRASFLGQKGISIDHLPPSFFIGGNTKQVWENILRDEYDKWDVSTLQEEYNTYKQNNPLPYKELIFPDVLKVLNEVKSQGLNIGLASSSVKADIFRALEENRLQAFFDIVLSGEEFKESKPNPEIYLTALKQLNVQASRALIIEDSEKGIAAGVAADVEVWAIRDNLFGMDQSAAKGLLDSLTDVLDLIK | not soluble
10 | GHRIARKVTDVWEITGPSSEDAIEVARWNPFTKEHEHFMEKSVAIAEIGKLVGLTKDEVLAEIERRKLVLLWMAKSGIRRYREVAPIIFKYYYSPDDVYERAAKELKTELI | not soluble
11 | MSLVERALQVGSPAPDFALPNAVGREVRLSSVTARGPSVITFYRGAWCPYCSLQLRAYQKILPQLKLLGGELLAISPQTPDKTQATLLKNFLEYEVLSDVGNRVAKRFGLVYPVGAEVRRIYLGFGVDLAEYNGDDSWELPLPGTFVIDRTMTVRLSFVDADYTRRLEPAAILDTLRAMRDVGGIPEGHHHHHH | not soluble
12 | GPGSMGSGCSTESSTDVRCSFVGLMDEKKESWRGRLLGDIGKDPTGVTRDFPRTQVYVAAPNRNNYYREKQDHVSVLVLKDKEDESKYFSDRNERVRESLELLVELCGEDSSVIKSEWEKQQKDIPDSSSLLMTVLLESGMMRATEANTENGGAGGETDAVTNIQNGGGGYAPKYTVHSKALRLMQYMVQSVAFFSTQHVTDALRFSWCKHMQDVSWAVYVYTEGGACGKERNSSDEILVLRHMHTLRHYVGQSERSTHPRFEVDWACTFHIDLKRLLDANNTAAKEATFAPEGEVQRIDGELLAARIESPNRKLCRITSTWKKRRSELEGRLMECFGVELTKVDVLDENGPLSALNSGG | not soluble
13 | MSFKDLRSFIDHLEANGELKRISYPVDPHLEMTEIADRVLRAQGPALLFENPTNHSMPVLANLFGTPKRVAMALGKDDPLALREVGELLAFLKEPEPPRGFKDAISKIPMFKQALNMPPKTVRNPACQQVVKTGDDVDLTQLPIQHCWPGDVAPLVTWGLTITKGPRKSRQNLGIYRQQLLGKNKLIMRWLSHRGGALDFADFKEQFPGERYPVVVALGSDPVTILGAVTPVPDAMSEYAFAGLLRGERTEVCKALSCDLEVPASSEIILEGYIDPNEMAEEGPYGDHTGYYNETDKFPVFTVTHITHRKDPIYHSTYTGRPPDEPAMLGVALNEVFVPILRKQYPEIIDFYLPPEGCSYRMAVISIRKQYPGHAKRVMMGAWSFLRQFMYTKFIVVVDDDVNCRDWNDVIWAITTRMDPKRDTVMIDNTPIDYLDFASPVVGLGSKMGLDATNKWEGETNREWGTPIVMDPKVKQKIDSIWDELGIS | soluble
14 | MSLSSMLPSISPELARIAPGFRALSINVIAAPVRDAQVGEIALKEACQAVINGQPAWAQAHIDAWNAVFKAFGAKPKRTPCSAEALRKRVLKDGTMAALDPVVDLYNAVSLRYAVPVGGENSAAYCGSPRLVFADGSETFDTLKEGKPVTESPEPGEVIWRDDRGVTCRRWNWRQGVRTRLSASDKMMWFILESLPEMPVDELYAAENMLTDGLEKMMPGLRFESTLIGVEGHHHHHH | not soluble
15 | MIHSMTAFSRIQKQFDVGDFCWEIRSVNHRYLDVSFRLPESFRFLEAELRTLLRDKIHRGKLECHLKYKDTSCDNRSMLINIGTINALLDLSSKLSASHHLANDMTVSQVLSWPGVVEANLLDMEELSQIALELFQKSIDKLCEVRAGEGRSLKAYVEDRLQALRQEVMKSKSIVVSMSAKTKDKLLTRLHELQMDVPEARVEQEIALLLAKLDVSEELDRLETHIAEVSRTLNAEKVTGRRLDFLMQELNREANTLSSKSDSAELTLCAVEMKVLIEQMREQIQNFE | not soluble
16 | MGKLYVVPTPVGNLEDMTFRAIKVLKEADLILAEDTRTSGILLKHFEIKNVMQSHHKFNEHKTVESVVNRIKAGETIALISDAGTPGISDPGFLVVRECVRNGIEVQCLPGA | not soluble
17 | MDTTKTIAALFDFDGVIMDTETQYTVFWDEQGRKYLNEEDFGRRIKGQTLTQIYEKYFSDLPEAQQEITAGLNIYEKSMSYEYIPGVEAFIADLRKHGAKIAVVTSSNEEKMQNVYNAHPEFKGMVDRILTGEMFARSKPAPDCFLLGMEIFGATPENSYVFEDSFHGLQAGMTSGATVIGLATTNTREAITGKAHYIIDDFSEMTFEHLLALHR | not soluble
18 | MGATEVGDENAGTVSAQPCSRQCCLEDFWALLRRHPAPEPPPWTPVLYPLRTSLPSTLAVFLNLGLSFPKTSITSSWRDWTLHLPFAWSLSVRGPSQCVHVRGGGDHIRRRGG | not soluble
19 | MVSSLLMSFAPATVRVYATSTKGGSGGPKEEKNPIDFVLGFMTKQDQFYETNPLLKKVDEKEGTTTGGRGTVRGGKNSAPTPVPKKSEGGFGGLGSLFKK | not soluble
20 | MHLCGVDYYQIDKQGSCKFRFKATQFYRALKNNKVSLRGIKPKDDGTTGQKLQVIPLLEMLISPGVRICDGGKFYNLQYEKAIRSGKMIVALTCKENNKKYVPQSLLSLINQPRKSQSKSLTESHEVIKISKSELNSTSVIEVYDKF | not soluble
21 | MTAQSYHPMIKEFPEFYGPLTCPGQFLALLILEFGLNFAEIQKLKWENFNWNFKYLTIEKAGIKRVLPIREKFAIRVKAINNADELFAKSRQFLYTELKKFTNYSSKEIREQYILHQVKAGKSIYELATLLGLTTITTLEKYYRLEHHHHHH | soluble
22 | MSLKEKKLVYLNSKQYEDAYRKKSVLLNDINNINEQYFDLKNSIKDYNKSSKDFESTKRQMEDELILNKMELGTLDVVGEGVEITLDDSGNQVSASSEDANFREIRTIYQVIHDFDMRAVINDIKCSGAEAISINGQRIVSNTEIYCNAEFLLINGVKISAPFNIKAIGNKNKLKTYMLASGNYLQRLKRRSIYVNLKTVNDVKIPAFKGELRHSNIKSKEGHHHHHH | soluble
23 | MSLNYSNDIFEEDTFNPGNDNLFLKTASVGTGEYFILPRLCAHLAKNAPKFVLKISSLSEYLSLEYLLMSELDFAIGPGFVETGNNIIRELLFEEEAVCIMHKSHPLANQELTQDMYLQAEHVDIQFSYMGNENILYKALQGYHQRNIKVIVPNIISALEVVYHTNFITTVPRTLAVTFKDRYQIELHPFPFPKKTFLVNFYYHKRLSNHKPLQWVLDVIKKYCCVNHEGHHHHHH | not soluble
24 | MGSDKIHHHHHHMRVLGLILAGGKSDRLWPLTKVRASAAVPVFGKYRAIDFTLSNMVNSGIRKVGILTQYNPRSLMDHLGSGKEWDLDRKSGGLFILQPYVGPNREVWYRGTADAIFQNMTILRRGEEDHVLIGSGDHIYKMIYRDLFNYHLKKGADITLVVKELDETYNLSEYGIVQLDDDMRVVEIEEKPAHPKGNIAFLGVYFMNKELLKELLYATVPQGKYDLLLDIVIPNLDRLKVYAYRFDGYWRNVKKGIKEYYRINMDILKKEVRDELFYRNGKVYTKLKDLPPPKFTTTAVVENSLIADGSIVSGTVRNSVIFRNVRIKVGAVVENSIIMENTVVEEGAVLRNVILDKNCIVREGRVIEGDTELPVFEKRAVL | not soluble
25 | MLPETDLRRVAAAAAAMHRVAEIRRTRVSGRMDNHERRVGTEWVVTLQGADFPVTIAADHDGSTVSFDDGSSMRVTSDWTPLEHHHHHH | not soluble
26 | MGSDKIHHHHHHMKIKIGKVEKRLNQIIEEEGAVYLTLLDPEEENIEEIAENVKDYADAIMVGGSIGIVNLDETVKKIKKITKLPIILFPGNVDGLSRYADAVFYMSLMNSANTYWVVTAPTLGAITILKYNLEPIPMAYLCIEPAKKTAVGYVGEIREIPQNKPKITAMYCLSAKFFGMRWAYLEAGSGASYPVNNETIALSKKLSGINIIVGGGIRKPEIAYEKVLAGADAIVTGNLLEENPKAVEMMYDAIKKAGKEKLKNK | not soluble

— the DeepSol protein solubility set
